± gives the uncertainty stated by the source.
Test: abundance fitness (aPCA) (normalised: wild type 0, dead -1); higher = more abundant; growth selection in yeast, the domain comes from the species named
Details: Homo sapiens

Substance | abundance fitness
Scaffold attachment factor B2 R29H, Q14151 | -0.099 ± 0.15
Scaffold attachment factor B2 R29I, Q14151 | -0.211 ± 0.15
Scaffold attachment factor B2 R29K, Q14151 | -0.038 ± 0.099
Scaffold attachment factor B2 R29L, Q14151 | -0.288 ± 0.07
Scaffold attachment factor B2 R29M, Q14151 | -0.288 ± 0.13
Scaffold attachment factor B2 R29N, Q14151 | -0.016 ± 0.11
Scaffold attachment factor B2 R29P, Q14151 | -0.117 ± 0.13
Scaffold attachment factor B2 R29Q, Q14151 | -0.162 ± 0.1
Scaffold attachment factor B2 R29S, Q14151 | -0.097 ± 0.1
Scaffold attachment factor B2 R29T, Q14151 | -0.01 ± 0.16
Scaffold attachment factor B2 R29V, Q14151 | -0.233 ± 0.08
Scaffold attachment factor B2 R29W, Q14151 | -0.246 ± 0.083
Scaffold attachment factor B2 R29Y, Q14151 | -0.4 ± 0.12
Scaffold attachment factor B2 R34A, Q14151 | 0.049 ± 0.079
Scaffold attachment factor B2 R34D, Q14151 | -0.055 ± 0.12
Scaffold attachment factor B2 R34F, Q14151 | -0.673 ± 0.23
Scaffold attachment factor B2 R34G, Q14151 | 0.012 ± 0.077
Scaffold attachment factor B2 R34H, Q14151 | -0.205 ± 0.13
Scaffold attachment factor B2 R34I, Q14151 | -0.75 ± 0.15
Scaffold attachment factor B2 R34K, Q14151 | -0.184 ± 0.12
Scaffold attachment factor B2 R34L, Q14151 | -0.473 ± 0.089
Scaffold attachment factor B2 R34M, Q14151 | -0.31 ± 0.1

Substance | abundance fitness
Scaffold attachment factor B2 R34N, Q14151 | -0.456 ± 0.33
Scaffold attachment factor B2 R34P, Q14151 | 0.02 ± 0.13
Scaffold attachment factor B2 R34Q, Q14151 | 0.003 ± 0.081
Scaffold attachment factor B2 R34S, Q14151 | 0.14 ± 0.087
Scaffold attachment factor B2 R34T, Q14151 | 0.157 ± 0.099
Scaffold attachment factor B2 R34V, Q14151 | -0.45 ± 0.087
Scaffold attachment factor B2 R34W, Q14151 | -0.679 ± 0.086
Scaffold attachment factor B2 R34Y, Q14151 | -0.616 ± 0.12
Scaffold attachment factor B2 R39G, Q14151 | -0.606 ± 0.14
Scaffold attachment factor B2 R45C, Q14151 | -0.686 ± 0.14
Scaffold attachment factor B2 R45D, Q14151 | -0.52 ± 0.13
Scaffold attachment factor B2 R45E, Q14151 | -0.411 ± 0.097
Scaffold attachment factor B2 R45F, Q14151 | -0.784 ± 0.21
Scaffold attachment factor B2 R45G, Q14151 | -0.486 ± 0.08
Scaffold attachment factor B2 R45H, Q14151 | -0.721 ± 0.23
Scaffold attachment factor B2 R45K, Q14151 | -0.374 ± 0.12
Scaffold attachment factor B2 R45L, Q14151 | -0.201 ± 0.078
Scaffold attachment factor B2 R45M, Q14151 | -0.66 ± 0.29
Scaffold attachment factor B2 R45N, Q14151 | -0.99 ± 0.24
Scaffold attachment factor B2 R45P, Q14151 | -0.682 ± 0.11
Scaffold attachment factor B2 R45Q, Q14151 | -0.326 ± 0.091
Scaffold attachment factor B2 R45S, Q14151 | -0.509 ± 0.092

Substance | abundance fitness
Scaffold attachment factor B2 R45T, Q14151 | -0.576 ± 0.11
Scaffold attachment factor B2 R45V, Q14151 | -0.565 ± 0.095
Scaffold attachment factor B2 R45W, Q14151 | -0.709 ± 0.085
Scaffold attachment factor B2 R59A, Q14151 | -0.465 ± 0.092
Scaffold attachment factor B2 R59C, Q14151 | -0.583 ± 0.19
Scaffold attachment factor B2 R59D, Q14151 | -0.54 ± 0.24
Scaffold attachment factor B2 R59E, Q14151 | -0.294 ± 0.099
Scaffold attachment factor B2 R59G, Q14151 | -0.23 ± 0.11
Scaffold attachment factor B2 R59H, Q14151 | -0.474 ± 0.22
Scaffold attachment factor B2 R59I, Q14151 | -1.2 ± 0.22
Scaffold attachment factor B2 R59K, Q14151 | -0.41 ± 0.19
Scaffold attachment factor B2 R59L, Q14151 | -0.771 ± 0.1
Scaffold attachment factor B2 R59M, Q14151 | -0.643 ± 0.12
Scaffold attachment factor B2 R59N, Q14151 | -0.623 ± 0.32
Scaffold attachment factor B2 R59P, Q14151 | -0.249 ± 0.094
Scaffold attachment factor B2 R59Q, Q14151 | -0.595 ± 0.097
Scaffold attachment factor B2 R59S, Q14151 | -0.322 ± 0.087
Scaffold attachment factor B2 R59T, Q14151 | -0.223 ± 0.15
Scaffold attachment factor B2 R59V, Q14151 | -0.496 ± 0.097
Scaffold attachment factor B2 R59W, Q14151 | -1.25 ± 0.15
Scaffold attachment factor B2 S31A, Q14151 | -0.051 ± 0.1
Scaffold attachment factor B2 S31C, Q14151 | -0.415 ± 0.16

Substance | abundance fitness
Scaffold attachment factor B2 S31D, Q14151 | -0.086 ± 0.12
Scaffold attachment factor B2 S31E, Q14151 | -0.01 ± 0.092
Scaffold attachment factor B2 S31F, Q14151 | -0.488 ± 0.16
Scaffold attachment factor B2 S31G, Q14151 | -0.208 ± 0.076
Scaffold attachment factor B2 S31H, Q14151 | -0.194 ± 0.09
Scaffold attachment factor B2 S31K, Q14151 | -0.221 ± 0.11
Scaffold attachment factor B2 S31L, Q14151 | -0.312 ± 0.1
Scaffold attachment factor B2 S31M, Q14151 | -0.341 ± 0.11
Scaffold attachment factor B2 S31N, Q14151 | -0.027 ± 0.11
Scaffold attachment factor B2 S31Q, Q14151 | -0.311 ± 0.095
Scaffold attachment factor B2 S31T, Q14151 | -0.225 ± 0.48
Scaffold attachment factor B2 S31Y, Q14151 | -0.629 ± 0.12
Scaffold attachment factor B2 S54A, Q14151 | -0.037 ± 0.077
Scaffold attachment factor B2 S54C, Q14151 | -0.44 ± 0.14
Scaffold attachment factor B2 S54D, Q14151 | -0.1 ± 0.14
Scaffold attachment factor B2 S54E, Q14151 | -0.038 ± 0.11
Scaffold attachment factor B2 S54G, Q14151 | -0.101 ± 0.071
Scaffold attachment factor B2 S54H, Q14151 | -0.191 ± 0.18
Scaffold attachment factor B2 S54I, Q14151 | -0.003 ± 0.21
Scaffold attachment factor B2 S54K, Q14151 | 0.031 ± 0.13
Scaffold attachment factor B2 S54L, Q14151 | -0.167 ± 0.1
Scaffold attachment factor B2 S54M, Q14151 | -0.15 ± 0.2

Substance | abundance fitness
Scaffold attachment factor B2 S54N, Q14151 | -0.223 ± 0.12
Scaffold attachment factor B2 S54Q, Q14151 | 0.042 ± 0.1
Scaffold attachment factor B2 S54R, Q14151 | 0.071 ± 0.074
Scaffold attachment factor B2 S54T, Q14151 | 0.073 ± 0.11
Scaffold attachment factor B2 S54V, Q14151 | -0.163 ± 0.078
Scaffold attachment factor B2 S54W, Q14151 | -0.261 ± 0.18
Scaffold attachment factor B2 S54Y, Q14151 | -0.358 ± 0.27
Scaffold attachment factor B2 T27A, Q14151 | -0.164 ± 0.1
Scaffold attachment factor B2 T27C, Q14151 | -0.112 ± 0.11
Scaffold attachment factor B2 T27D, Q14151 | 0.024 ± 0.18
Scaffold attachment factor B2 T27E, Q14151 | 0.08 ± 0.21
Scaffold attachment factor B2 T27G, Q14151 | -0.128 ± 0.094
Scaffold attachment factor B2 T27I, Q14151 | -0.136 ± 0.19
Scaffold attachment factor B2 T27K, Q14151 | -0.658 ± 0.16
Scaffold attachment factor B2 T27L, Q14151 | -0.074 ± 0.13
Scaffold attachment factor B2 T27M, Q14151 | -0.053 ± 0.15
Scaffold attachment factor B2 T27Q, Q14151 | -0.076 ± 0.19
Scaffold attachment factor B2 T27R, Q14151 | -0.275 ± 0.096
Scaffold attachment factor B2 T27S, Q14151 | -0.175 ± 0.13
Scaffold attachment factor B2 T27V, Q14151 | -0.369 ± 0.15
Scaffold attachment factor B2 T27W, Q14151 | -0.514 ± 0.13
Scaffold attachment factor B2 T49A, Q14151 | -0.181 ± 0.089
